# Measurements as given in the domain aggregation screens of Martell et al. (2025).
# Experiment: soluble fraction after stress (log2 fold change); higher = more stays soluble; pooled small domains, quantitative proteomics
# Conditions: stress: 50 degC
# Summary of the method: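 Quantitative proteomics served as the high-throughput read-out for pooled custom libraries of small protein domains. Each was stressed at 50°C. Aggregation propensity is expressed as the base-two log fold change in soluble protein after stress. A higher value means a larger share of the protein remains in solution.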
row,Sequence,soluble fraction (log2)
1,HMIENITIELNKKALALDFELNKDLPEGVLETIPTLVSLMVRFDPLTVSYHFLRDYIDALLESNLNVDL,-0.0273
2,HMDANAYTYKVSEDTDTRTGEKIFLVKVAEKLSRKEYIVVNNYMKSLGSYYSKFKHAFLFKENPTEKL,-0.23
3,HMTLDDSFYQKADEIIANHTKEERSLIPIIQDIQAEYRYLPPELLTYVAKEIGITDARAYSVASFYENFS,-0.446
4,HMSSLSGVRRTLLDSLGMPPDASDEELADRREELRGSLDTAPQARRKWIEQQLARIDAITALDASG,-0.035
5,HMSDRFLDQEGVALSTLRPSGTVVLDSGEHLDVVTRGEFIEQGERVKVIKAESTWYVVEQIN,-0.268
6,HMGADSFTGYTPIHKIDNPSDGINDGASYVVYFQKDGTDPTEFYKAVNANASTLAQLTSGTEYDLASSKKL,0.0305
7,HMRILGIDPGYAITGYSIIDYVGNKFKLIDSGAVLTKAGVSFPLRLTKIYDDLSMIIDEYKPDA,-0.207
8,HMSLREKNKARTRTAILNAARDLAKQGQWDAITTRQIADAAGVSYQTLYNYYPSKASILVEMLL,-1.45
9,HMKQLIGYSVIDIKMGKLGEISFVNSKTAQALIHVSKDGKGFYFPWHKQFVKNIDAEKGIMEVEIPKEFLD,-0.237
10,HMYLELVTKEGGSFDEPDYWGRRKLAYEIAGKTEGNYVVVKYTAEPATSDELDRVLNLNESVIRTKILRK,0.0508
11,HMREEMYGLIGFITTSEVTDTFGQMEIKLENEPEMRINVRTNPGESLARGDAAKIISFNNSNGTFLVELTK,-0.474
12,HMENPPISVVIPPSFRGQRIDKALGSLIGDYSRSKIQQWLQSGLVQSAGEPLLPKYTVLGNEQILIAVPS,0.00382
13,HMTTPAAISKIKKLEEAKRLLATTTYSMKEIAVKLKYKSHTHFGMDFKNNTGMTPAEYRKAIKAKREKQMN,-0.0571
14,HMNVNVSFTQLRHKAEHAIQAKNWSEARNLLTLATLMRPTHRNVARRLKAVEQRNRLFRRLLLILTHRKV,-0.295
15,HMQGQADFTQGIANFTQYPVGSRITVFTLEGRRVAVVEIGKDGTAQLDMRNKPAGVYIVNTGKQSFKWLK,-1.26
16,HMSSDLSNVVKIIDTLKHKKGALLPILHQIQREIGYIPLKTIDTIAKKLQQTPAEIHGVISFYHQFRTS,0.0942
17,HMTVVIKVQASQLESWKSSAGTEIKAKLIAVEDEKTYLFVTETGKTIRATAAQLDESSVSRARKLAGL,-1.03
18,HMFLPGETFDVKIVKIGEGENQGVGYLDDGTMIVIENGRDHLNELARVIVTRVLQNSAGQMIFSDYEE,-2.27
19,HMALHLPTTTINGRQYYYFKSKEKITVYGLSKRLGLTRQEIVEHNPSAVDGIKRGSTLYFPVDEFAD,-2.09
20,HMGRQVTVPNVTGMLVEEARAAISEAELWVDSPRAVQGEVTRQEPARGERLSPGQEVRIYTES,0.31
21,HMSLIHEQSLKEIRIFINNLPESLRTAFTLREQDGLSYEEISKITDTPIGTVRSRIFRARESILEHINEEL,-1.89
22,HMNIDQAFISDLERMIMPDISKYELMDIISIMENSGFTIKVEGTGNEVRQVIKPGSKLKKGQKIKIKL,-1.83
23,HMVSTGIMVVDGRGSVLQHNEAALRQLGVEVLTFESQVKEKLASEDFSVRETTAMLNGKKVRIIAFSDIR,-1.62
24,HMSKEIQNILASLPSVDVLLKQIDPIYPHGKAKEATQQVVARLRESVVDGTRKTVIDQKEVIAMIHKQLEE,0.143
25,HMDEMEFQKYVDQNLKQKGISLTAEAKAELLLRLGGDTMLLHSAIEKLDLYGEKNLNLNDIKHLVSLNSDV,0.229

row,Sequence,soluble fraction (log2)
1,HMQTTQQLIRNLRLKQAATLLADKRHSITEVATLTGFTHPTYFATAFREMFGVSPSEYMEQHI,-0.86
2,HMANLAQITKTNAVALALKDVGAYNSEDLMKFIDLDKVVLGEDGKPQLEDTINSLKESSPYLFQ,0.0767
3,HMSQDVLLKRSGDQIEVKITEVGEDYLKYKKKGFENGPDFKINTSDVFMVTFANGEKMMFEES,0.0105
4,HMRDQARQFFIDTWAKFQRHDALTPLEEKTAAIIALHPEYHRVLQNPESFITTDWRPESGDINPFMHL,-1.34
5,HMARRLELEDIPVDEVLFTASRNLVDAIEVMDPSRQAPMIQPWLKQALEWAVGALGFSKEDAVATLTSD,-0.0273
6,HMPQKSDLTMEEYNKLGLAGGSGSRKLREQVGIRLSVGYGNSKQFYNRLHTFGISLDELKTAVEEVKNG,-0.117
7,HMAPSLQISLKQAIITAQQQHPGSKALNADFDGARGTPRYVIETLLPTGELRELTIDAQSGQVMEDHPDR,0.119
8,HMSTNDIFISGDKLVLKNTTGQMDVFDMAGRKVLSSTNNVSEMNVSSLPKGVYVVSASIGGSKMKAKVYK,0.527
9,HMQADEENPKYPVITDGVIQLEVLESIDKTEEWLVERLAKDGYNNVSEIFIAEYENGNLSIVT,0.148
10,HMKPAFTPYVVKVTADVLNVRSGPGTNYGITTKVKKGEAYTIVEEKNGWGKLKSGAGWISLEYTVK,-0.109
11,HMSGPMVPNVVGLSEEMARALLSDYSITIKHAHDGVIPKDRVASQLPLATTHAKVGSSVVLTIS,-0.354
12,HMGKNISEEDMLGYFKKIDLDYDAETKEVIAPTFRHDLFRLADLAEEVARFFGYDNIPTTLPSGEAT,0.0416
13,HMFEARNTTFSEDGKTITETYGVKRIETEFVSDSTIVQKLYDNDVLTKTKTITFSADGLSIKEDV,0.0154
14,HMFHDALVSFAERRVIFMKELVNRLNEARKAYYEGESIMSDKEYDNLYDKLVKMELTTGVVLPNSPTEEVG,-1.37
15,HMDLSLQTFNELKTELTNNKITIDQFSEKINEFDITSDIFEISRELFLDDTLSLEDYLVVIENVLIN,-0.45
16,HMPESYFEMLQKLLETYALPQEGTIYFSAADLARMPQKFEDVIEQTAQKKGGHLVVSKEPKDMDGGFVLV,-1.41
17,HMATVTVPNLKGMTPSGAESALAELNLKGAVGDSVESNDVENGKVASQDQAAGSDAKEGDTITYHLSS,0.0967
18,HMGTGIKQVNVVSVIGQDEETAKTTLTNLGLKVNVTYATSTSDNGKVTKQSIDAGKTVDEGTSVTITVNKV,0.241
19,HMSGGIVRLAVKPWGEVFVDGASRGITPPLKQLTLDAGVHRIEIRNPAGPSWTKDVDVVAGQPTTVSHRF,0.0289
20,HMSLSIKINHESVGLRLDQFLQEHYYKQQSRSYVQHAIKEGYILVNGQSVKNGYMLKLDDLIELEAI,-1.59
21,HMRMDKHLWLSLLRLINEGSAEELQTKKDELLQSLERLRITRGPVRGDVLRVVRLIDEELVSRLHLDQR,-2.29
22,HMETAESLLRRLIMLEDPAMQNAMYVLAVMLERGKQLVERAAKPHESGGILRVYEHKKSGDTFVVLDPR,-0.511
23,HMGMESFWNRVANLLNTSTVVELAQILDVKRSTLSSWIHSDRRPPMEVLLKITRLTGVDIHRLE,-1.56
24,HMKGKITTNWVSLTSDLGWLRSELYSSGSVLEERISNEGLIELHLENFQNDLIKLLEVEGFDLIKE,-3.1
25,HMEMLQRFIFLENVSSTQVESAIKELHPNLNLKRVKLSFPGADTVLLKGPKQDLELAEELIRHLDRSE,-0.0342
